The labels stand for the following.
T1: human IL-1α (human, UniProt P01583 113-271)
T1 sequence (looked up): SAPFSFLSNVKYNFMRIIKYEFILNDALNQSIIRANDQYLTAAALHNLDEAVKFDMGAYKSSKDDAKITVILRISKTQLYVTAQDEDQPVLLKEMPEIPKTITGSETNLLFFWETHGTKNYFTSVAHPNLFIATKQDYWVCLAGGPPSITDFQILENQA

B1: ABT1-18 (other)
VL: DIQMTQSPSSLSASVGDRVTITCRASQSIQRWLAWYQQKPGKAPKLLIYFASQLQSGVPSRFSGSGSGTDFTLTISSLQPEDFATYYCQQLLRLPKTFGQGTKVEIKR
B2: ABT1-95-181 (other)
VL: DIQMTQSPSSLSASVGDRVTITCRASKPIVRNMRWYQQKPGKAPKLLIYSVSYLEPGVPSRFSGSGSGTDFTLTISSLQPEDFATYHCLQGYRWPPTFGQGTKVEIKR
B3: ABT1-155 (other)
VL: DIQMTQSPSSLSASVGDRVTITCRASSPIVANLRWYQQKPGKAPKLLIYAASSLQSGVPSRFSGSGSGTDFTLTISSLQPEDFATYYCTQGYVWPPTFGQGTKVEIKR
B4: ABT1-95-177 (other)
VL: DIQMTQSPSSLSASVGDRVTITCRASQPIVRNLRWYQQKPGKAPKLLIYASSYLEPGVPSRFSGSGSGTDFTLTISSLQPEDFATYHCRQGYRWPVTFGQGTKVEIKR
B5: ABT1-95-A2 (other)
VL: DIQMTQSPSSLSASVGDRVTITCRILQPPGRNLRWYQQKPGKAPKLLIYSKSFLEPGVPSRFSGSGSGTDFTLTISSLQPEDFATYHCQQGYRWPVTFGQGTKVEIKR
B6: ABT1-95-174 (other)
VL: DIQMTQSPSSLSASVGDRVTITCRASRPIVRNLRWYQQKPGKAPKLLIYSVSYLEPGVPSRFSGSGSGTDFTLTISSLQPEDFATYHCRQGYRWPVTFGQGTKVEIKR
B7: ABT1-221 (other)
VL: DIQMTQSPSSLSASVGDRVTITCRASQDIWPYLMWYQQKPGKAPKLLIYYSSMLQSGVPSRFSGSGSGTDFTLTISSLQPEDFATYYCQQFRRWPYTFGQGTKVEIKR
B8: ABT1-95-86 (other)
VL: DIQMTQSPSSLSASVGDRVTITCRASQPIVRNLRWYQQKPGKAPKLLIYSTSYLEPGVPSRFSGSGSGTDFTLTISSLQPEDFATYHCQQGYRWPVTFGQGTKVEIKR
B9: ABT1-95-182 (other)
VL: DIQMTQSPSSLSASVGDRVTITCRASKPGVRNLRWYQQKPGKAPKLLIYSVSYLEPGVPSRFSGSGSGTDFTLTISSLQPEDFATYHCLQGYRWPPTFGQGTKVEIKR
B10: ABT1-3 (other)
VL: DIQMTQSPSSLSASVGDRVTITCRASQSIWTELKWYQQKPGKAPKLLIYGASLLQSGVPSRFSGSGSGTDFTLTISSLQPEDFATYYCQQFAYFPFTFGQGTKVEIKR
B11: ABT1-9 (other)
VL: DIQMTQSPSSLSASVGDRVTITCRASQSIGSSLLWYQQKPGKAPKLLIYLASRLQSGVPSRFSGSGSGTDFTLTISSLQPEDFATYYCQQFRSTPNTFGQGTKVEIKR
B12: ABT1-145 (other)
VL: DIQMTQSPSSLSASVGDRVTITCRASQDIDDGLAWYQQKPGKAPKLLIYRTSRLQSGVPSRFSGSGSGTDFTLTISSLQPEDFATYYCQPTWLPPCTFGQGTKVEIKR
notes: VK dAb
B13: ABT1-143 (other)
VL: DIQMTQSPSSLSASVGDRVTITCRASQRIDRHLSWYQQKPGKAPKLLIYKTSKLQSGVPSRFSGSGSGTDFTLTISSLQPEDFATYYCQQLHAKPFTFGQGTKVEIKR
notes: VK dAb
B14: ABT1-144 (other)
VL: DIQMTQSPSSLSASVGDRVTITCRASQRIKKYLAWYQQKPGKAPRLLIYRSSQLQSGVPSRFSGSGSGTDFTLTISSLQPEDFATYYCQQSFKRPVTFGQGTKVEIKR
notes: VK dAb
B15: ABT1-146 (other)
VL: DIQMTQSPSSLSASVGDRVTITCRASQNIKTFLHWYQQKPGKAPKLLIYRVSHLQSGVPSRFSGSGSGTDFTLTISSLQPEDFATYYCQQEYRIPLTFGQGTKVEIKR
notes: VK dAb
B16: ABT1-172 (other)
VL: DIQMTQSPSSLSASVGDRVTITCRASQRIRNGLEWYQQKPGKAPKLLIWGSSRLQSGVPSRFSGSGSGTDFTLTISSLQPEDFATYYCAQTVWGPATFGQGTKVEIKR
notes: VK dAb
B17: ABT1-141-7 (other)
VL: DIQMTQSPSSLSASVGDRITITCRASQWIQKQLAWYQLKPGKAPKLLIYSSSYLQSGVPSRFSGSGSGTDFTLTISSLQPEDFATYYCQQHLRVPFTFGQGTKVEIKR
notes: VK dAb
B18: ABT1-141-14 (other)
VL: DIQMTQSPSSLSASVGDRVTITCRASQWIQKQLAWYQQKPGKAPRLLIYSSSYLQSGVPSRFSGSGSGTDFTLTISSLQPEDFATYYCQQNLSVPFTFGQGTKVEIKR
notes: VK dAb
B19: ABT1-141-21 (other)
VL: DIQMTQSPSSLSASVGDRVTITCRASQWIQKQLAWYQQKPGKAPKLLIYSSSYLQSGVPSRFSGSGSGTDFTLTISSLQPEDFATYYCQQQMSSPRTFGQGTKVEIKR
notes: VK dAb
B20: ABT1-141-23 (other)
VL: DIQMTQSPSSLSASVGDRVTITCRASQWIQKQLAWYQQKPGKAPKLLIYSSSYLQSGVPSRFSGSGSGTDFTLTISSLQPEDFATYYCQQQMQPPRTFGQGTKVEIKR
notes: VK dAb
B21: ABT1-141-22 (other)
VL: DIQMTQSPSSLSASVGDRVTITCRASQWIQKQLAWYQQKPGKAPKLLIYSSSYLQSGVPSRFSGSGSGTDFTLTISSLQPEDFATYYCQQQMAPPRTFGQGTKVEIKR
notes: VK dAb
B22: ABT1-141-16 (other)
VL: DIQMTQSPSSLSASVGDRVAITCRASQWIQKQLAWYQQKPGKAPKLLIYSSSYLQSGVPSRFSGSGSGTDFTLTISSLQPEDFATYYCQHHLRVPFTFGQGTKVEIKR
notes: VK dAb
B23: ABT1-141-17 (other)
VL: DIQMTQSPSSLSASVGDRVTITCRASQWIQKQLAWYQLKPGKAPKLLIYSSSYLQSGVPSRFSGSGSGTDFTLTISSLQPEDFATYYCQQHLRVPFTFGQGTKVEIKR
notes: VK dAb
B24: ABT1-142 (other)
VL: DIQMTQSPSSLSASVGDRVTITCRASQSINDVLAWYQQKPGKAPRLLIYSASYLQSGVPSRFSGSGSGTDFTLTISSLQPEDFATYYCQQYISLPFTFGQGTKVEIKR
notes: VK dAb
B25: ABT1-141-19 (other)
VL: DIQMTQSPSSLSASVGDRVTITCRASQWIQKQLAWYQQKPGKAPKLLIYSSSWLQSGVRSRFSGSGSGTDFTLTISSLQPEDFATYYCQQHLRVPFTFGQGTKVEIKR
notes: VK dAb
B26: ABT1-141-3 (other)
VL: DIQMTQSPSSLSASVGDRVTITCRASQWIQKQLAWYQQKPGKTPKLLIYSQSHLQSGVPSRFSGSGSGTDFTLTISSLQPEDFATYYCQQHLRVPFTFGQGTKVEIKR
notes: VK dAb
B27: ABT1-141-18 (other)
VL: DIQMTQSPSSLSASVGDRVTITCRASQWIQKQLAWYQQKPGKVPKLLIYSSSYLQSGVPSRFSGSGSGTDFTLTISSLQPEDFATYYCQQHLRVPFTFGQGTKVEIKR
notes: VK dAb
B28: ABT1-141-9 (other)
VL: DIQVTQSPSSLSASVGDRVTITCRASQWIQKQLAWYQQKPGKAPKLLIYSSSWLQSGVPSRFSGSGSGTDFTLTISSLQPEDFATYYCQQHLRVPFTFGQGTKVEIKR
notes: VK dAb
B29: ABT1-141-46 (other)
VL: DIQMTQSPSSLSASVGDRVTITCRASQWIQKQLAWYQQKPGKAPKLLIYSSSHLQSGVPSRFSGSGSGTDFTLTISSLQPEDFATYYCQQHLRVPMTFGQGTKVVIKR
notes: VK dAb
B30: ABT1-141-8 (other)
VL: DIQMTQSPSSLSASVGDRVTITCRASQWIQKQLAWYQLKPGKAPKLLIYSSSWLQSGVPSRFSGSGSGTDFTLTISSLQPEDFATYYCQQHLRVPFTFGQGTKVEIKR
notes: VK dAb
B31: ABT1-141-1 (other)
VL: DIQMTQSPSSLSASVGDRVTITCRASQWIQKQLAWYQQKPGKAPKLLIYSGSWLQSGVPSRFSGSGSGTDFTLTISSLQPEDFATYYCQQHLRVPFTLGQGTKVEIKR
notes: VK dAb
B32: ABT1-141-6 (other)
VL: DIQMTQSPSSLSASVGDRVTITCRASQWIQKQLAWYQQKPGKAPKLLIYSSSYLQSGVPSRFSGSGSGTDFTLTISSLQPEDFATYYCLQHLRVPFTFGQGTKVEIKR
notes: VK dAb
B33: ABT1-159 (other)
VL: DIQMTQSPSSLSASVGDRVTITCRASSPIGMDLFWYQQKPGKAPRLLIDGVSGLQSGVPSRFSGSGSGTDFTLTISSLQPEDFATYYCSQHWPAPLTFGQGTKVEIKR
notes: VK dAb
B34: ABT1-139 (other)
VH: EVQLLESGGGLVQPGGSLRLSCAASGFTFSDYTMIWVRQAPGKGLEWVSSISARGWGTYYADSVKGRFTISRDNSKNTLYLQMNSLRAEDTAVYYCAKGSPQLVLPFDYWGQGTLVTVSS
notes: VH dAb

Some results are limits rather than exact numbers.

The first experiment has as its target T1, human IL-1α. The experiment can be described thus: cell-based or functional assay.
For B1, the ND50 was > 10000 nM. Same read-out and setting: under B2 stands 0.014 nM; under B3, 20 nM. Same read-out and setting: under B4 stands 0.008 nM. For B5, the ND50 stood at 0.133 nM.

On to B6, for which the ND50 amounted to 0.01 nM. Same read-out and setting: under B7 stands 100 nM; under B8, 0.2 nM. Molecule B9 returned an ND50 of 0.005 nM. Take B10: the ND50 stood at 1000 nM.

In turn, B11 registered an ND50 of 4000 nM.

The target in a further experiment is T1, human IL-1α. Kind of experiment: Table 62 IC50; RBA presumed.
In the case of B12, the IC50 was > 500 nM. The same measure, in the same setting: under B13 stands > 500 nM. Same read-out and setting: under B14 stands 100 nM. On the same count and under the same terms, under B15 stands > 500 nM; under B16, > 1000 nM; under B17, 10 nM. Molecule B18 returned an IC50 of 10 nM. The same measure, in the same setting: under B19 stands 60 nM. The same measure, in the same setting: under B20 stands 80 nM.

Consider B21, for which the IC50 worked out at 30 nM.

B22 yielded an IC50 of 20 nM. The same measure, in the same setting: under B23 stands 30 nM. Same read-out and setting: under B24 stands 200 nM; under B25, 50 nM; under B26, 80 nM. On the same count and under the same terms, under B27 stands 80 nM.

Molecule B28 had an IC50 of 10 nM. In turn, B29 yielded an IC50 of 3 nM. On the same count and under the same terms, under B30 stands 10 nM. On to B31, for which the IC50 is > 100 nM. On the same count and under the same terms, under B32 stands 20 nM.

In turn, B33 registered an IC50 of 200 nM. On the same count and under the same terms, under B34 stands 80 nM.

One may read the IC50 as the concentration needed to halve the response being measured. Read a high IC50 as weaker potency.

The values are drawn from patent US20090291081A1 (AbbVie / Abbott, published 2009).
